# Reference: publication PMC3246455, “Degradation of Pheromone and Plant Volatile Components by a Same Odorant-Degrading Enzyme in the Cotton Leafworm, Spodoptera littoralis” (PLoS ONE, 2011)
# B1: SlCXE7 (Spodoptera littoralis) (protein)
# chain: DDEWREVKTAQGPVRGRKHPTEDIYTFYNIPYATAPVGVDRFKAPLPPPVWLQPYDAVEKPVVCPQPVFPFPELQLNKLVKQENCLIANVFVPNTNKKNLSVVVYVHGGAFIMGWGDMFRATQLMNKKDIIVVTFNYRLGVHGFLCLGTEDAPGNAGMKDQVALLRWVQKNIGSFNGNPDDVTIIGFSAGSASVDLLMLSKSAEGLFHRVVPESGGNLAAFAIQRDPVEIAKTYARQLNFTNVDDIYALGEFYKTAPLELLTSDPFFDRTDSTFLFSPCVERNMGQETFLTESPLTILKNGNYKKLPVLYGFAEMEGLLRVDFFPFWKQKMSDKFSDFLPADLTFKYEEEREEVANKVKRFYFGDEPVSEDNILQYVNFFSDVLFMHPMLWATKLHVEAGNNQIYLYELSFVAEEVPEVPHTNIKGVTQCGQSLAVLDGKNLTHKSHSEESLATPEYQKMKKTMREIWYNFIKKGKPVPEGSTRPAWPFAGADRSPHMSLGQKIEPRGVLLEKRTVLWDDINQRYFREPVPPPTPPPKSHAEK
# notes: complete ORF amplified from male antennal cDNA, C-terminal V5/6His tag (tag kept), secreted from baculovirus-infected Sf21 cells, Ni-NTA purified from supernatant
# Tests used:
# Assay type in all cases: biochemical, Spodoptera littoralis
# [1] = substrate: CC/C=C\CCOC(C)=O; experiment: GC of the released alcohol, as in an earlier paper; conditions: incubation and analyses as in ref 12; one-site fit
# [2] = substrate: C/C=C/C/C=C\CCCCCCCCOC(C)=O; experiment: GC of the released alcohol, nonlinear fit; conditions: 5 min incubation, one-site fit, buffer and temperature not restated for kinetics (1 h assay: 20 mM Tris pH 7.4, 28°C)
# [3] = substrate: CC/C=C/C=C\CCCCCCCCOC(C)=O; experiment: GC of the released alcohol, nonlinear fit; conditions: 5 min incubation, one-site fit, buffer and temperature not restated for kinetics (1 h assay: 20 mM Tris pH 7.4, 28°C)
protein,measurement,setting,value
B1,Km,[1],1.6 ± 0.7 mM
same,kcat,[1],36 s⁻¹
same,Km,[2],42.6 ± 13.3 µM
same,kcat,[2],~0.4 s⁻¹
same,Km,[3],56.6 ± 18.5 µM
same,kcat,[3],~0.4 s⁻¹
